From the supplement of paper PMC12338614

B1: library; numbered along this chain (parent)
chain: MEVVDPQQLGMFTEGELMSVGMDTFIHRIDSTEVIYQPRRKRAKLIGKYLMGDLLGEGSYGKVKEVLDSETLCRRAVKILKKKKLRRIPNGEANVKKEIQLLRRLRHKNVIQLVDVLYNEEKQKMYMVMEYCVCGMQEMLDSVPEKRFPVCQAHGYFCQLIDGLEYLHSQGIVHKDIKPGNLLLTTGGTLKISDLGVAEALHPFAADDTCRTSQGSPAFQPPEIANGLDTFSGFKVDIWSAGVTLYNITTGLYPFEGDNIYKLFENIGKGSYAIPGDCGPPLSDLLKGMLEYEPAKRFSIRQIRQHSWFRKKHPPAEAPVPIPPSPDTKDRWRSMTVVPYLEDLHGADEDEDLFDIEDDIIYTQDFTVPGQVPEEEASHNGQRRGLPKAVCMNGTEAAQLSTKSRAEGRAPNPARKACSASSKIRRLSACKQQ

Variants of: B1
Test: STK11 functional score (HeLa growth suppression), rescaled enrichment; synonymous median = 1, nonsense median = 0 (normalised score)
Settings: with HeLa; variant type: missense
Procedure, shortened: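 The functional score takes the post/pre-selection log ratio, corrects it to wild type, rescales it to synonymous and nonsense medians, and merges it over codons and replicate transfections, with error from bootstrapping. Counts came from tiled gDNA amplicons sequenced on NextSeq (~2 million reads per tile). The libraries were POPCode codon-randomised, codon-optimised STK11 integrated by Bxb1 at an AAVS1 landing pad in HeLa, three regions with three transfections each.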

STK11 functional score of substitutions, site by site:
M392: Y 1.04, S 1.52, G 1.43, W 0.68, N 0.559, P 1.63, V 1.51, C 1.34, A 1.56, L 1.57, R 0.973, F 1.17, I 1.42, D 1.19
G381: Y 1.37, V 0.684, T 1.6, W 1.05, S 1.36
P387: G 1.58, L 1.02, S 1.41, K 1, A 1.32, C 1.54, D 1.56, Y 0.935, V 1.13, T 1.56, H 1.45, R 1.47, E 1.6, Q 1.37, F 1.14, N 1.63, M 1.44, I 1.54, W 1.62
E396: G 1.55, T 1.08, Q 1.18, M 1.47, W 1.49, H 1.55, R 1.53, N 1.49, L 1.14, F 1.41, I 1.57, Y 1.23, V 1.55, D 1.45, A 1.29, S 1.18, C 1.26
A389: L 1.54, V 0.744, S 1.38, Y 1.15, C 1.51, Q 1.18, T 1.25, E 1.52, W 1.04, P 1.3, I 1.59, H 1.51, D 1.2, F 1.33, G 1.46, K 1.61, R 1.56
K388: W 1.5, N 1.53, D 1.31, M 1.39, Q 1.21, S 1.19, F 1.24, T 1.42, L 0.826, Y 1.07, E 1.42, A 1.17, G 1.31, H 1.12, I 0.996, V 1.3, R 1.54, P 0.884
L386: F 0.706, A 1.6, C 1.31, E 1.55, P 0.743, N 0.528, T 1.6, S 1.45, H 0.959, I 1.14, Q 1.37, G 1.19, W 1.13, R 1.43, V 1.06
V390: A 1.51, F 1.18, S 1.5, H 0.912, P 1.52, E 1.44, D 1.4, W 0.447, Q 1.63, G 1.39, Y 1.41, L 1.22, C 1.06, R 1.4, T 1.59
A398: L 1.16, Q 1.58, K 1.53, T 1.3, V 1.01, C 1.35, S 1.16, M 1.63, G 1.1, Y 1.23, F 1.12, W 0.886, I 1.13, D 1.18, N 1.15, R 1.42, E 1.55
C391: S 0.743, V 0.834, F 0.922, E 1.58, I 1.07, L 1.54, W 0.764, M 1.62, N 0.483, A 1.51, G 1.22, H 1.46, R 1.6, T 0.912
Q382: R 1.48, E 1.2, D 1.47, F 1.14, Y 1.28, T 1.29, A 1.38, C 1.15, S 1.5, I 1.31, V 1.12, P 1.35, M 1.52, H 1.15, L 1.34, K 1.11, W 1.06, G 1.4
T395: F 0.847, K 0.547, W 1.61, G 1.49, C 1.61, N 1.4, L 1.23, R 1.58, Q 1.5, I 0.971, D 1.56, H 1.53, Y 1.47, M 1.05, P 1.32, E 1.33, V 1.04, A 0.877, S 0.942
S401: C 1.05, A 1.54, D 1.19, E 1.24
R384: Q 1.62, M 1.36, C 1.14, A 1.33, W 1.35, S 1.53, I 1.06, H 1.47, F 1.55, T 1.15, G 1.28, D 1.2, E 1.53, L 1.43, P 1.56, V 1.22, Y 1.53, N 1.54
Q399: F 1.27, T 1.29, C 1.23, R 0.852, D 1.39, P 1.35, H 1.13, L 1.31, Y 1.42, K 0.826, V 0.994, M 0.653, G 1.51, A 1.11, S 0.903, I 1.05, W 1.43, N 1.39, E 1.47
N393: R 1.07, C 1.54, D 1.07, T 1.48, S 1.09, P 1.59, A 1.59, H 1.51, E 1.48, Y 1.51, F 1.52, L 1.16, M 1.48, V 0.689, I 1.39, G 1.36, K 0.96
G385: V 0.433, S 1.51, R 1.13, I 1.45, H 1.56, L 0.869, F 1.36, M 1.59, D 1.3, W 1.28, E 1.41, N 1.59, Q 1.57, T 1.58, K 1.6, A 1.46, P 1.26
R383: I 1.57, H 1.57, N 1.5, M 1.59, A 1.44, Q 1.51, K 1.57, E 1.57, W 0.781, Y 1.25, F 1.2, S 1.3, G 1.11, D 1.49, P 1.31, T 1.56, C 1.22, L 1.42, V 1.25
A397: W 0.847, H 1.64, T 1.51, E 1.44, C 1.04, G 1.14, D 1.32, Y 1.38, P 1.18, F 1.35, M 1.62, R 1.46, L 1.27, I 1.51, S 1.26, K 0.947, N 0.679, V 0.799
L400: H 1.42, E 1.58, I 1.55, S 1.07, F 1.46, Y 1.55, N 1.63, Q 1.27, T 1.11, W 1.56, K 0.775, A 1.64, V 1.41, G 1.48, R 1.37, D 1.19
G394: Y 1.38, L 1.59, W 1.29, N 0.969, A 1.32, H 1.6, S 1.46, Q 1.35, P 1.52, C 1.28, K 1.6, D 1.32, I 1.51, F 1.17, R 1.17, M 1.62, E 1.26, V 1.29
